Results on 140 substances are retold here after the supplement of paper PMC12042874.

± gives the uncertainty stated by the source.

This data set in a line: amyloid nucleation score (Sup35N fusion, yeast selection) (log enrichment); library NNK1; higher = more nucleation; inactive = no reads after selection. In short, it runs like this:
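For the nucleation score, DiMSum gave the log enrichment of output over input reads, centred on the mode score of non-aggregating sequences. Psi-negative yeast expressing Sup35N fused to peptides of 20 random codons were induced with 100 μM copper sulfate for 24 hours and grown 7 days at 30°C on medium lacking adenine and uracil. Input and output plasmid inserts were Illumina-sequenced, and sequences with under 100 input reads were excluded.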
On to CMWSRRWGTLLASILVLSYG, for which the amyloid nucleation score came out at 0.081 ± 0.34.

Consider CNIMRSLWLGAIVCMSTMYC, for which the amyloid nucleation score is -0.396 ± 0.73.

Take CNIVFSPGTDNVVEIRVRKL: the amyloid nucleation score worked out at 4.15 ± 0.062.

CNLSTCSFHFHFLT came in with an amyloid nucleation score of 4.53 ± 0.11.

CNMHATETLNIRCVNSDAC registered an amyloid nucleation score of 0.046 ± 1.6.

CPVFQHDDKDWLGVFKWLRN registered an amyloid nucleation score of -1.32 ± 2.4.

CQNYSHLWGEVTEWLCQRGP came in with an amyloid nucleation score of 3.39 ± 0.17.

CQRAFI displayed an amyloid nucleation score of -0.041 ± 0.77.

In turn, CRASYGFHVQRDALDR gave an amyloid nucleation score of -0.438 ± 0.75.

CRFKYHLRV returned an amyloid nucleation score of -1.21 ± 2.4.

In the case of CRGNLIL, the amyloid nucleation score is -0.578 ± 0.29.

CRHLFNWASWSTFTRIS: the amyloid nucleation score was 0.375 ± 0.23.

Consider CRLKSMMVRNSWSVCSSGWG, for which the amyloid nucleation score was 0.32 ± 0.5.

As for CRLYVVGFFKKL, the amyloid nucleation score entry is “inactive”.

In the case of CRNSTVGITLIGWTSHFFNI, the amyloid nucleation score was 1.2 ± 0.76.

As for CRNVRQSCGYIYYCSRKHLA, the amyloid nucleation score is 0.546 ± 0.49.

In turn, CRQGMTLAVREPGASTSVYN yielded an amyloid nucleation score of 0.47 ± 0.71.

For the substance CRSHRGHMCSLVSYLAHGSS, the amyloid nucleation score result is “inactive”.

With CRVMEKIEVCYIRYFFSWLD, the amyloid nucleation score was 0.574 ± 0.39.

Consider CRYTITFLVQKYLLDFFA, for which the amyloid nucleation score was -0.074 ± 0.35.

The substance CSCVVVNCNWYG had an amyloid nucleation score of 8.609 ± 0.071.

CSDSVGSIYSHVRSGGLE: the amyloid nucleation score entry is “inactive”.

CSGNSSGVRCMVRSNRS showed an amyloid nucleation score of 0.523 ± 0.38.

With CSGTICLIIRKLAVILTSQR, the amyloid nucleation score entry was “inactive”.

CSGYDGNSSYNGSNPVSFND gave an amyloid nucleation score of 0.056 ± 0.77.

Substance CSILYAAPKIRQSARFLMLS registered an amyloid nucleation score of 0.451 ± 0.32.

For the substance CSLKKSMQNYEFHFWFLFIV, the amyloid nucleation score is -0.757 ± 0.62.

For the substance CSLLLMYIKNELMIRSFGRF, the amyloid nucleation score result is “inactive”.

With CSLLSYK, the amyloid nucleation score was -1.63 ± 2.7.

The substance CSLSRVNHDLMVKDSSKEQR displayed an amyloid nucleation score of 4.3 ± 0.073.

As to CSSFAQ, the amyloid nucleation score was 0.549 ± 0.31.

Regarding CSSPRTTLEYWNCFFDHWWS, the amyloid nucleation score came out at 2.64 ± 0.2.

The substance CSWFVYSNFFSHQMADMEWL returned an amyloid nucleation score of 0.183 ± 0.58.

Regarding CTDSEAKGCDFFGRISVNVY, the amyloid nucleation score was 0.689 ± 0.73.

For CTHRSFFSSNAIAVRLDLSW, the amyloid nucleation score entry was “inactive”.

In the case of CTIWPSQDGRGCTLCGSRL, the amyloid nucleation score is 0.348 ± 0.75.

Regarding CTLILSQQFSSIPVHFILYM, the amyloid nucleation score was determined as 4.4 ± 0.05.

Consider CTLKWLTF, for which the amyloid nucleation score is 1.34 ± 0.43.

For CTMLCFQALRLLGRRILFQA, the amyloid nucleation score is -0.361 ± 0.48.

In the case of CTPALLGLAIIQQGNTWLGI, the amyloid nucleation score was determined as 2.63 ± 0.079.

Consider CTPVT, for which the amyloid nucleation score came out at 0.887 ± 1.

The substance CTQGCHRVNWSVTYRVVFLA yielded an amyloid nucleation score of 0.848 ± 0.42.

As to CTRHMHTSRKFQALLSWCVT, the amyloid nucleation score is -0.316 ± 0.47.

Substance CTWYLLVSSSRLLTDSFLPS had an amyloid nucleation score of 1.32 ± 0.6.

Turning to CTYNLTCLWHMELNSSMIMR, the amyloid nucleation score was 5.37 ± 0.061.

For CVFIHRSFHTLFSGRRVDYP, the amyloid nucleation score amounted to 0.229 ± 0.55.

In turn, CVFVRMMCTRFAAHHCVLSG displayed an amyloid nucleation score of -0.143 ± 1.2.

Consider CVLPSNYDFV, for which the amyloid nucleation score result was “inactive”.

Take CVLSNRNFNYVAYTYKLQYP: the amyloid nucleation score worked out at 1.19 ± 0.32.

Regarding CVLVNVNNDQSWWR, the amyloid nucleation score amounted to 5.04 ± 0.076.

As to CVSGVDLYRGSLGACGW, the amyloid nucleation score entry was “inactive”.

Turning to CVSIQDHFRGYKALDPAWFV, the amyloid nucleation score amounted to 0.805 ± 0.27.

The substance CVVLMMGVPAKAGLLLLHWS displayed an amyloid nucleation score of 0.297 ± 0.35.

As for CVYGIGVYR, the amyloid nucleation score was -0.84 ± 0.95.

In turn, CVYSFNWLRLLGALSG had an amyloid nucleation score of 2.18 ± 0.24.

As for CWCQAPVC, the amyloid nucleation score was 0.124 ± 0.31.

On to CWCSANALMCRGKLSAWNRH, for which the amyloid nucleation score result is “inactive”.

For the substance CWGWMARLAINLAGTGSNQK, the amyloid nucleation score was determined as 0.119 ± 0.71.

CWMTGWTYPVY had an amyloid nucleation score of 3.85 ± 0.15.

The substance CWVHQNNCADVGATGEQSHR gave an amyloid nucleation score of -0.029 ± 0.51.

CWVLNFVFGDCNLSCWGN yielded an amyloid nucleation score of 7.185 ± 0.051.

CWWRV gave an amyloid nucleation score of -0.761 ± 0.83.

For the substance CWYET, the amyloid nucleation score was -1.27 ± 1.9.

In turn, CYRLWHGCKMGIPVQYLYGS yielded an amyloid nucleation score of -0.113 ± 0.36.

CYSMNEFFGNLHVSTRTHGK: the amyloid nucleation score is -0.944 ± 0.66.

On to CYWSFKSAVAGPLSSESEGS, for which the amyloid nucleation score is 4.4 ± 0.095.

DAALVIYLL yielded an amyloid nucleation score of -0.6 ± 0.52.

DACGNWCYCWRALDGQDGSI yielded an amyloid nucleation score of 0.099 ± 0.31.

DAIPFMFPNLMVMK came in with an amyloid nucleation score of 0.155 ± 0.55.

DAIVDS gave an amyloid nucleation score of 0.084 ± 0.54.

In turn, DALYLFWVMGRMVRDRV showed an amyloid nucleation score of 0 ± 0.63.

With DAMHCCKTDYYIIGISGPSD, the amyloid nucleation score is 0.732 ± 0.68.

The substance DAMWEMRVTTVRALARVCVC had an amyloid nucleation score of 0.236 ± 1.1.

DCDRYNGLCHLCCIQWHL returned an amyloid nucleation score of 1.56 ± 0.33.

In turn, DCNLSSYLVYWAFHYDKLMS displayed an amyloid nucleation score of 0.083 ± 0.58.

DCPFKLPFSTRRR showed an amyloid nucleation score of 0.05 ± 0.73.

Take DCRQTAKHFPETSDNLYRLT: the amyloid nucleation score is -0.2 ± 0.28.

DCYREVSYFKFQNTKGSGSW: the amyloid nucleation score is 3.33 ± 0.14.

The substance DDGPLWRMKEMCLVTVRGSE showed an amyloid nucleation score of 0.91 ± 0.29.

DDKLLRVLFLMCSPYYTIIG registered an amyloid nucleation score of -0.065 ± 0.22.

The substance DDLQCITLRFTRDASRGVSL yielded an amyloid nucleation score of 0.843 ± 0.84.

Turning to DDVGSTRYTTMGEACQGRPA, the amyloid nucleation score is -1.13 ± 0.8.

For the substance DDWIVRHCFNCLSVWMYLRY, the amyloid nucleation score was 0.257 ± 0.9.

As for DEDNFVRSHVNPLYLTSADD, the amyloid nucleation score is 0.609 ± 0.83.

DEGRSTQSVVCLVMEVNSDR returned an amyloid nucleation score of 0.411 ± 0.48.

In the case of DEWCVG, the amyloid nucleation score was 0.017 ± 0.82.

The substance DEWSNKHCSQNTALCSLWAT had an amyloid nucleation score of 1.43 ± 0.2.

DFARQSSHPETWSSGDLSHS displayed an amyloid nucleation score of 0.239 ± 0.96.

DFECILLGCFGLDLPVTGIR gave an amyloid nucleation score of 2.27 ± 0.16.

As for DFIKYAFSWE, the amyloid nucleation score was -0.347 ± 0.36.

DFIVS showed an amyloid nucleation score of -0.198 ± 0.3.

Substance DFRAIS yielded an amyloid nucleation score of 0.576 ± 0.79.

The substance DFWMSRKYLNVSMQ yielded an amyloid nucleation score of 3.98 ± 0.1.

With DFYFYKLSLIFKSAFRWFPV, the amyloid nucleation score was -0.359 ± 1.2.

In turn, DGEAPKGSTGWTCGRVNERD registered an amyloid nucleation score of -0.125 ± 0.6.

Consider DGHKGEDSMAKLNFIFRLYS, for which the amyloid nucleation score is -0.33 ± 0.38.

As for DGICNW, the amyloid nucleation score was found to be 2.61 ± 0.12.

As to DGQVSAVESMLRRWDSPVKG, the amyloid nucleation score worked out at 0.18 ± 1.

Turning to DGRFLCFHIGSLMSGWDGRQ, the amyloid nucleation score was -0.783 ± 0.75.

Substance DGRRFFYQRGDICLSMLHNH showed an amyloid nucleation score of -1.58 ± 1.7.

DGSYTTRGRGHGESGRSGCW gave an amyloid nucleation score of 0.17 ± 0.42.

In turn, DHASIGMALYCFCYQVSFIL had an amyloid nucleation score of 0.391 ± 0.42.

DHFKG registered an amyloid nucleation score of -0.044 ± 0.84.

For DHFPARKVGCTILTCMMQKL, the amyloid nucleation score came to 0.697 ± 0.63.

For the substance DIKGRLLWGDKARLNEVPLR, the amyloid nucleation score stood at 1.04 ± 0.57.

Substance DILVYRTLSPCVLSCSYFSG yielded an amyloid nucleation score of -1.25 ± 0.77.

Turning to DIPVSHGAYL, the amyloid nucleation score was -0.378 ± 0.84.

Substance DIRDYGLWWDKWAEGC showed an amyloid nucleation score of 0.459 ± 0.3.

DIRLTMRVSSLSM showed an amyloid nucleation score of 0.566 ± 0.31.

For the substance DITYVYFSVAELLLMFLTLY, the amyloid nucleation score stood at 1.33 ± 0.48.

In the case of DIVPSTPELFI, the amyloid nucleation score is -0.505 ± 0.59.

DKAGNGQNGATGWRTMALSG registered an amyloid nucleation score of 0.777 ± 1.2.

Take DKDDEIY: the amyloid nucleation score was determined as 1.42 ± 0.76.

For the substance DKISWLSHQLRWDSRMSNLE, the amyloid nucleation score came out at 1.1 ± 0.66.

The substance DKRYGDEVRHTGRWSRSVVW had an amyloid nucleation score of 0.013 ± 0.42.

Substance DKSNRTCNWQFNNICCL returned an amyloid nucleation score of 8.386 ± 0.049.

On to DKTMVGTPGLTHMVVDGVE, for which the amyloid nucleation score was 0.12 ± 0.84.

Turning to DKWLPIFTGGQLLSNLIFFC, the amyloid nucleation score amounted to 0.832 ± 0.18.

On to DLCIFIYFVISVRVLYRISN, for which the amyloid nucleation score result is “inactive”.

DLFRSSLSPVSLLHSDMDMG came in with an amyloid nucleation score of 0.12 ± 0.41.

Substance DLFYDGCSRFLVMSKGTALV showed an amyloid nucleation score of -0.412 ± 1.2.

DLIAARLAALF showed an amyloid nucleation score of -0.964 ± 0.39.

DLIQLGLGQVSDPLGTWWSG: the amyloid nucleation score came out at 2.29 ± 0.3.

With DLIWPRTRYRSTVD, the amyloid nucleation score entry was “inactive”.

As to DLLFMLRGAWAKSFMMGSVG, the amyloid nucleation score was 0.059 ± 0.43.

Turning to DLLQLYSDGTRGYVFFLLMK, the amyloid nucleation score result was “inactive”.

Substance DLLYERTYRSVVISLRTLAG displayed an amyloid nucleation score of 0.816 ± 0.92.

DLNDMAIRV yielded an amyloid nucleation score of 0.004 ± 0.31.

With DLPLDS, the amyloid nucleation score worked out at 0.16 ± 0.72.

DLPWSMLKVL came in with an amyloid nucleation score of 0.689 ± 1.2.

Regarding DLSSESHVFLCVAL, the amyloid nucleation score is -0.711 ± 2.1.

The substance DMEKVV came in with an amyloid nucleation score of 0.408 ± 0.6.

Turning to DMVYYNEIPKGRYQHPAG, the amyloid nucleation score is 0.593 ± 0.56.

On to DNGGFDPWWCWNRLRWWRGG, for which the amyloid nucleation score amounted to 0.248 ± 0.38.

The substance DNINKLSWTRSILELG had an amyloid nucleation score of -0.452 ± 0.62.

DNRFERAVWVPHL displayed an amyloid nucleation score of 3.78 ± 0.12.

Substance DNSPSSWFDWDLGEIGVRVE yielded an amyloid nucleation score of -0.469 ± 1.

DNVLALDGWNLINCLTT: the amyloid nucleation score amounted to 0.155 ± 0.37.

The substance DPGPLARKVGRRIEAAIMVA yielded an amyloid nucleation score of 0.992 ± 0.49.

For the substance DPICYKRNKANVYLGRFGYR, the amyloid nucleation score turned out to be 0.7 ± 0.66.
